The text below walks through data of patent publication EP4321174A1 (Genome and Company, dated 2024).

Assay in all cases: ELISA, coated CNTN4 domain sample, anti-human IgG Fc-HRP
(An ELISA detects its analyte on a solid surface through an enzyme-linked reagent.)

Experiment [1] addresses T1, Human CNTN4 domain sample D1-6 (human, UniProt Q8IWV2 19-586, limits assumed).
T1 construct: domain: Domains 1 to 6; Coated at 2.3 ug/mL
T1 sequence (looked up): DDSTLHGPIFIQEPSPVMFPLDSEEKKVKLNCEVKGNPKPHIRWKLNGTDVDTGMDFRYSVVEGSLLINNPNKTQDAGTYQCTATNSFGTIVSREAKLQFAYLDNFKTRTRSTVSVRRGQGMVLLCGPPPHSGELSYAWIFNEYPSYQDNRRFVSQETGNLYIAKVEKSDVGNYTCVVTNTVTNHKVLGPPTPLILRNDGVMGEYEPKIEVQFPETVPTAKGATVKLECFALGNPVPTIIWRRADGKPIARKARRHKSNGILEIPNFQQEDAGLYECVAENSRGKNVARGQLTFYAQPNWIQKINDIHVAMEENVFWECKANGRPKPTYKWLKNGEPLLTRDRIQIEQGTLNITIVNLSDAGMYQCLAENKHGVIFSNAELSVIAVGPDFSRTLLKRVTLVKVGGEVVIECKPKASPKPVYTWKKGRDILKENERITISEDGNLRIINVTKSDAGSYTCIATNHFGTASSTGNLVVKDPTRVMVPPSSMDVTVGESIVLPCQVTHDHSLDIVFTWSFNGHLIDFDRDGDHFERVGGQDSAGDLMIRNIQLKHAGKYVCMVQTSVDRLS

Experiment [2] addresses T2, Human CNTN4 domain sample D1-7 (human, UniProt Q8IWV2 19-697, limits assumed).
T2 construct: domain: Domains 1 to 7; Coated at 2.8 ug/mL
T2 sequence (looked up): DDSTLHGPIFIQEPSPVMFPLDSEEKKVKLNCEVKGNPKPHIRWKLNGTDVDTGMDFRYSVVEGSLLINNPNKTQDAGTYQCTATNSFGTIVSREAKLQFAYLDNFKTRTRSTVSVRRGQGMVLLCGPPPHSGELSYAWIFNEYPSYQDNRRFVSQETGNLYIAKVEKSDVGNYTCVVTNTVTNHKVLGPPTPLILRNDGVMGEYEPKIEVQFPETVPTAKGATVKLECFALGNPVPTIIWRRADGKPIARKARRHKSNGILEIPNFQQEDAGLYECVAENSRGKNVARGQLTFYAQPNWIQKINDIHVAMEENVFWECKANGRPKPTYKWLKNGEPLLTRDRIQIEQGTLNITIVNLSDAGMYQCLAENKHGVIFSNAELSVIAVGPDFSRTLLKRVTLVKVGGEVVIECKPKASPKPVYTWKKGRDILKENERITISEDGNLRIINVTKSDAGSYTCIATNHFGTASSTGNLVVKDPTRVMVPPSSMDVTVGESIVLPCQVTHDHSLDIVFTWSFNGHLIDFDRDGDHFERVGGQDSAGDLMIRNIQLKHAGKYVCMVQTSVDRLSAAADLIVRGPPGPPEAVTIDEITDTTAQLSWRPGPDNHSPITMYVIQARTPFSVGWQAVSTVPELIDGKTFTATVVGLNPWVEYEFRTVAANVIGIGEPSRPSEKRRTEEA

Experiment [3] has as its target T3, Human CNTN4 domain sample D1-8 (human, UniProt Q8IWV2 19-799, limits assumed).
T3 construct: domain: Domains 1 to 8; Coated at 3.2 ug/mL
T3 sequence (looked up): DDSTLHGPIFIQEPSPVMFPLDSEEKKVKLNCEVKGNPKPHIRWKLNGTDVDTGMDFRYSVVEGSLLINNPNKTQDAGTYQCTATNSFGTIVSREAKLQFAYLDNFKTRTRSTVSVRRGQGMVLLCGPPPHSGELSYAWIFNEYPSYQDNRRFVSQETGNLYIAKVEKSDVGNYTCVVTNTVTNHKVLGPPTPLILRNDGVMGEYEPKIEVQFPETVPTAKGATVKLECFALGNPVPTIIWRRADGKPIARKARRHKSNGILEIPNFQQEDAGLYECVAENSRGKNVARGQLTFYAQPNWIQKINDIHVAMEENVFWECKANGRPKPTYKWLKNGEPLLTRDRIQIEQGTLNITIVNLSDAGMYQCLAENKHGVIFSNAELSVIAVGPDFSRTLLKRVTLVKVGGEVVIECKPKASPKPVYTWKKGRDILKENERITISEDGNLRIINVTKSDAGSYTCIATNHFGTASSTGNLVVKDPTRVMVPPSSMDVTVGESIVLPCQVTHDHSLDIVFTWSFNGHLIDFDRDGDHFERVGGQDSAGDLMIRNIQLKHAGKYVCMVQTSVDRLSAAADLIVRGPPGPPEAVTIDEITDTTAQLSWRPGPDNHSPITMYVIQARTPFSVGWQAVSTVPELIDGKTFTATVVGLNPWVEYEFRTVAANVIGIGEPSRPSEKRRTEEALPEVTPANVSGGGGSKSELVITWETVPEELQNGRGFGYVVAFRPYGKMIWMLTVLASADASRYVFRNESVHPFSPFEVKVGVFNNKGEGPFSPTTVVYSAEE

In experiment [4] the target is T4, Human CNTN4 domain sample D1-9 (human, UniProt Q8IWV2 19-899, limits assumed).
T4 construct: domain: Domains 1 to 9; Coated at 3.6 ug/mL
T4 sequence (looked up): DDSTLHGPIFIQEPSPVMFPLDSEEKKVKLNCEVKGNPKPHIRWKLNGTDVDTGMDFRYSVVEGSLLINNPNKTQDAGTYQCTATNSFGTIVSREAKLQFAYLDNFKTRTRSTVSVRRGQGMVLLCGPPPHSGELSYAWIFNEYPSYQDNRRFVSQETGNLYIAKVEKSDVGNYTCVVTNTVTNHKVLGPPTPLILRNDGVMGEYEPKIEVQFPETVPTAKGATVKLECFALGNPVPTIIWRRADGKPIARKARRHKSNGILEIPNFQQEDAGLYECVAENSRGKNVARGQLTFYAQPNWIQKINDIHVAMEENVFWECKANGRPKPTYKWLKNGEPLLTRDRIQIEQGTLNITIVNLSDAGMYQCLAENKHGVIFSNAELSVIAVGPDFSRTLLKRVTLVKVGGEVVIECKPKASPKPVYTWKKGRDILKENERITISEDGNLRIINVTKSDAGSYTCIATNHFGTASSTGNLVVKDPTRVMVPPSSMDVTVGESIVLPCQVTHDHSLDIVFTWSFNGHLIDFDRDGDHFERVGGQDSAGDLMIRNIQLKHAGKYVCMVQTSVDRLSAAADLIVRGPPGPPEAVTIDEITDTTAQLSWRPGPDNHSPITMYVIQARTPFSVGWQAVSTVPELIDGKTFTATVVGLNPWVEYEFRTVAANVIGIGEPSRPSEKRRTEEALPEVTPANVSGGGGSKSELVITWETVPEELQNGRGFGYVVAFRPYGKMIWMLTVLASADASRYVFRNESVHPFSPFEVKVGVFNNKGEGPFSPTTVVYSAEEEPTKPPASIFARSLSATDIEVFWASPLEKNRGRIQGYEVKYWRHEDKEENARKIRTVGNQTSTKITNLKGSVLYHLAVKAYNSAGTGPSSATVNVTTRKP

Experiment [5] has as its target T5, Human CNTN4 domain sample Full (Domains 1 to 10) (human, UniProt Q8IWV2 19-1000, limits assumed).
T5 construct: domain: Domains 1 to 10 (Ig1 to FN4); Coated on the ELISA plate at 4 ug/mL
T5 sequence (looked up): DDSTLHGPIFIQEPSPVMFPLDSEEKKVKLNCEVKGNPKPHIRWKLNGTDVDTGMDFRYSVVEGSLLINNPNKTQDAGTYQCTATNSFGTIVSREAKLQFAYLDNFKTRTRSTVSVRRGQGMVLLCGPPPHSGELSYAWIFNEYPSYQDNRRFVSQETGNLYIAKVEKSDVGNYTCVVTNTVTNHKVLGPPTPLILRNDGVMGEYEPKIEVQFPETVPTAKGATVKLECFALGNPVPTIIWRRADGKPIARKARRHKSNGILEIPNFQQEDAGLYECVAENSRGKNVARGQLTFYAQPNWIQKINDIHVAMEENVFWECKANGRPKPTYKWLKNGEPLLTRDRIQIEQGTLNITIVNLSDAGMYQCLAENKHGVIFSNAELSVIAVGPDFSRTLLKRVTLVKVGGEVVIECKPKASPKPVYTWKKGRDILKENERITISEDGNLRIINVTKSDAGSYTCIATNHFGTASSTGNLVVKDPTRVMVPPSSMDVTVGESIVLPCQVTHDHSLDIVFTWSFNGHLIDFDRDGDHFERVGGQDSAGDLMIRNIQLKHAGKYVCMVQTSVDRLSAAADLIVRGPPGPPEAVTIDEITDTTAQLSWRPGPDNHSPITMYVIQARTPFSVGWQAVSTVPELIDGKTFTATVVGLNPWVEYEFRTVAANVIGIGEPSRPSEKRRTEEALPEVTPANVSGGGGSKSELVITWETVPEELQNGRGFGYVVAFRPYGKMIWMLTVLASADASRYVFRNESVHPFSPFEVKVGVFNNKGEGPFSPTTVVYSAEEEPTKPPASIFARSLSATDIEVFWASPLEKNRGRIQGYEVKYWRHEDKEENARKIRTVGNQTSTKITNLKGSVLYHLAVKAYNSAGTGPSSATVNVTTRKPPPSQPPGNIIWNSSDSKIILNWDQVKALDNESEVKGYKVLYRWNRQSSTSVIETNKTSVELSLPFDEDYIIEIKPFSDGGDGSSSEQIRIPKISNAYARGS

The target in experiment [6] is T6, Human CNTN4 domain sample D1-4 (human, UniProt Q8IWV2 19-400, limits assumed).
T6 construct: domain: Domains 1 to 4; Coated at 1.6 ug/mL
T6 sequence (looked up): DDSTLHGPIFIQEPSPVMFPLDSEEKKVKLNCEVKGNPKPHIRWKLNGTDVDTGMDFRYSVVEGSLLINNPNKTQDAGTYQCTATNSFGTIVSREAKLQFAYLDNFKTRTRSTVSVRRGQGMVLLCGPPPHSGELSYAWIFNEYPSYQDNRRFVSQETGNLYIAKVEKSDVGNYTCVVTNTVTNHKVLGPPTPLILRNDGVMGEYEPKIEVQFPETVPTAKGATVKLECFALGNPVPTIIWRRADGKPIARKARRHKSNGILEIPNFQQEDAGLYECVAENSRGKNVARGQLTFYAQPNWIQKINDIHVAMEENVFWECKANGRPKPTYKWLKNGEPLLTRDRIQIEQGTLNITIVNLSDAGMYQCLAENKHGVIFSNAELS

The target of experiment [7] is T7, Human CNTN4 domain sample D1-5 (human, UniProt Q8IWV2 19-493, limits assumed).
T7 construct: domain: Domains 1 to 5; Coated at 2.0 ug/mL
T7 sequence (looked up): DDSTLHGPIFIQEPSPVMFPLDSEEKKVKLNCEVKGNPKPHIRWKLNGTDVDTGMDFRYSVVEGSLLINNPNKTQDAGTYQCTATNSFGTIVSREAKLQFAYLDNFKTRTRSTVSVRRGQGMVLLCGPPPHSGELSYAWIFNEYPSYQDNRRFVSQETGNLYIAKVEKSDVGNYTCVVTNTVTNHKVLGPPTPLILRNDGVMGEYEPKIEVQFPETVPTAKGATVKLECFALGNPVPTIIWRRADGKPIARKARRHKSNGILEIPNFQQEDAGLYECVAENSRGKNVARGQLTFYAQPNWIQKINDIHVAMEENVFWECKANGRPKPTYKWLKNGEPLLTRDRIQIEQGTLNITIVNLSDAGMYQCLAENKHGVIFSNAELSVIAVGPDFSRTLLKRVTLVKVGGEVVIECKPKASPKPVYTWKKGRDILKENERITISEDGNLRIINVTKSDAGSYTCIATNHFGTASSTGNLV

B1: anti-CNTN4 chicken-human chimeric IgG4 antibody AB1 (antibody, V domains shown)
VH: AVTLDESEGGLQTPGGALSLVCKASGFTFSSFNMFWVRQAPGKGLEYVAEISGGGGSTWYAPAVKGRATISRDNGQSTVRLQLNNLRAEDTGTYYCAKSADTWSYGAATIDAWGHGTEVIVSS
VL: ALTQPSSVSANLGETVKITCSGSSGSYGWYQQKSPGSAPVTLIYDNTNRPSDIPSRFSGSGSGSTGTLTITGVRAEDEAVYYCGGYDGSTDVFGAGTTLTVL
notes: They were cloned into a chicken-human chimeric IgG4 and purified on Kappa select resin, so the light chain has a kappa constant region; also called anti-CNTN4 antibody AB1; anti-CNTN4 129 chimeric IgG4 antibody
Turning to B1, the binding result in experiment [1] was “no binding”; in experiment [2], “no binding”; in experiment [3] it was “binds”; in experiment [4], “binds”; in experiment [5], “binds”; in experiment [6] it was “no binding”. Moreover, the binding result in experiment [7] was “no binding”.
